T1: ETS1 x2 (Homo sapiens, UniProt P14921)
T1 sequence: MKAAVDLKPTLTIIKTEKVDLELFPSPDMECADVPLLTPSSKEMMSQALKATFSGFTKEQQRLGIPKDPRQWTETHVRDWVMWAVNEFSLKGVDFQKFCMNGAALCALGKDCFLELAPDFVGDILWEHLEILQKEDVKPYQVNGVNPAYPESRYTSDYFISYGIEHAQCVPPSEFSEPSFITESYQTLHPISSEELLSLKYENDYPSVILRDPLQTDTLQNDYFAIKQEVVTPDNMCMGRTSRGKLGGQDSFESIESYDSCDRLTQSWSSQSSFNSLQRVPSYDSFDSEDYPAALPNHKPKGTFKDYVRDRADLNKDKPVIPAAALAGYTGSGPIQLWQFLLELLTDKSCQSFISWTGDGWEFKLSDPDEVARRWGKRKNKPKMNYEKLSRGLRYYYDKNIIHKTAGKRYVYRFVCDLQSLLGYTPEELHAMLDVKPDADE

B1: Table S4 A row 1105 (dsDNA)
DNA 1: GCCAGAGGGGCGGAAGAACCCGGAAGACCCAGGCAG
DNA 2: CTGCCTGGGTCTTCCGGGTTCTTCCGCCCCTCTGGC
B2: Table S4 A row 258 (dsDNA)
DNA 1: GCTTATCACTGAAGGAAACAGGATGCTAAATGTACG
DNA 2: CGTACATTTAGCATCCTGTTTCCTTCAGTGATAAGC
B3: Table S4 A row 273 (dsDNA)
DNA 1: TAATACAACTGGGGAAGTCACTTCCTTGCTGAGCTT
DNA 2: AAGCTCAGCAAGGAAGTGACTTCCCCAGTTGTATTA
B4: Table S4 A row 1107 (dsDNA)
DNA 1: ACGGCCACCAGGAGGAAACTTCCTCTGAATCTTCCA
DNA 2: TGGAAGATTCAGAGGAAGTTTCCTCCTGGTGGCCGT
B5: Table S4 A row 1719 (dsDNA)
DNA 1: GGACCTACAGGAAGACTGACTAGCTTCCTTCGAGCC
DNA 2: GGCTCGAAGGAAGCTAGTCAGTCTTCCTGTAGGTCC
B6: Table S4 A row 1993 (dsDNA)
DNA 1: ATCACGGGGCCCATCCGGGGAGGAAGGCGGCACAGG
DNA 2: CCTGTGCCGCCTTCCTCCCCGGATGGGCCCCGTGAT
B7: Table S4 A row 1584 (dsDNA)
DNA 1: TGTGTCGGACAGGAACTCGGCTTCCTTTGTGCCTCT
DNA 2: AGAGGCACAAAGGAAGCCGAGTTCCTGTCCGACACA
B8: Table S4 A row 1360 (dsDNA)
DNA 1: CAGAACGCACAGGAAGAGAGAGGAAACCAAGTGGGT
DNA 2: ACCCACTTGGTTTCCTCTCTCTTCCTGTGCGTTCTG
B9: Table S4 A row 1809 (dsDNA)
DNA 1: AGGGCAGGATGCCAAGATGAACTACATTTCCTGGCA
DNA 2: TGCCAGGAAATGTAGTTCATCTTGGCATCCTGCCCT
B10: Table S4 A row 1655 (dsDNA)
DNA 1: CCGCGGGGTCCGGAACTGCTTGTTCCGGCAGTGGAA
DNA 2: TTCCACTGCCGGAACAAGCAGTTCCGGACCCCGCGG
B11: Table S4 A row 2210 (dsDNA)
DNA 1: AAAACACCCGGATGGAGTCGCACTTCCCGAGTCTCG
DNA 2: CGAGACTCGGGAAGTGCGACTCCATCCGGGTGTTTT
B12: Table S4 A row 2446 (dsDNA)
DNA 1: TCCCACCGTCCCATCCGCTACTTCCCGAAAACTCAA
DNA 2: TTGAGTTTTCGGGAAGTAGCGGATGGGACGGTGGGA
B13: Table S4 A row 1545 (dsDNA)
DNA 1: CTTCGAAGAGATTTCCTCCCGGAAAGGCCGAGCATT
DNA 2: AATGCTCGGCCTTTCCGGGAGGAAATCTCTTCGAAG
B14: Table S4 A row 180 (dsDNA)
DNA 1: AGCAATACCAGGAAATGTGTTGCTTCCTAAAGTGAT
DNA 2: ATCACTTTAGGAAGCAACACATTTCCTGGTATTGCT
B15: Table S4 A row 1213 (dsDNA)
DNA 1: ACAATATCCCAGGAAACAGACATCCGCGTGCTCGCG
DNA 2: CGCGAGCACGCGGATGTCTGTTTCCTGGGATATTGT
B16: Table S4 A row 2604 (dsDNA)
DNA 1: AGGGGGCGGCGGCGGATGCCGGAAGAGTGCCCGCCC
DNA 2: GGGCGGGCACTCTTCCGGCATCCGCCGCCGCCCCCT
B17: Table S4 A row 356 (dsDNA)
DNA 1: TTGGGCCATTGTTTTCCTGCTTCCTCCCTTCAAGCC
DNA 2: GGCTTGAAGGGAGGAAGCAGGAAAACAATGGCCCAA
B18: Table S4 A row 834 (dsDNA)
DNA 1: AAGGCAGGAGGATGTGCTCGCGGTTTCCTGTGATGT
DNA 2: ACATCACAGGAAACCGCGAGCACATCCTCCTGCCTT
B19: Table S4 A row 1205 (dsDNA)
DNA 1: CTTAAACTGGAGGAAGTAAGTTTCCGTTAAAATGTG
DNA 2: CACATTTTAACGGAAACTTACTTCCTCCAGTTTAAG
B20: Table S4 A row 2690 (dsDNA)
DNA 1: CGGGCCTCCGCCTTCCGCCCGGAACCCACCCCCGGG
DNA 2: CCCGGGGGTGGGTTCCGGGCGGAAGGCGGAGGCCCG
B21: Table S4 A row 1195 (dsDNA)
DNA 1: GGCGTCGCCGCCGGATTCGACTTCCTGACGTCAGGC
DNA 2: GCCTGACGTCAGGAAGTCGAATCCGGCGGCGACGCC
B22: Table S4 A row 2241 (dsDNA)
DNA 1: GCGGCCTCCAAACATCCTCCGGAAGCTGCCACCTAC
DNA 2: GTAGGTGGCAGCTTCCGGAGGATGTTTGGAGGCCGC
B23: Table S4 A row 2126 (dsDNA)
DNA 1: ACGCGAAAGCCCGGATAGACTTCCGCGCAGGGGCGG
DNA 2: CCGCCCCTGCGCGGAAGTCTATCCGGGCTTTCGCGT
B24: Table S4 A row 110 (dsDNA)
DNA 1: TTGAGGGCTGGGCGGAAACGGAAAAGGCTAAGGGCC
DNA 2: GGCCCTTAGCCTTTTCCGTTTCCGCCCAGCCCTCAA
B25: Table S4 A row 1821 (dsDNA)
DNA 1: TAATCTGCAACTTCCCTGTTCTTCCTGTTAGATGTG
DNA 2: CACATCTAACAGGAAGAACAGGGAAGTTGCAGATTA
B26: Table S4 A row 502 (dsDNA)
DNA 1: CAGAGCAGCAGGAAACCATTATTTCCTCCTAGGTCT
DNA 2: AGACCTAGGAGGAAATAATGGTTTCCTGCTGCTCTG
B27: Table S4 A row 2174 (dsDNA)
DNA 1: CAGCACGGGCCGCTTCCTTATCCGGTAAAGTGCGGG
DNA 2: CCCGCACTTTACCGGATAAGGAAGCGGCCCGTGCTG
B28: Table S4 A row 1239 (dsDNA)
DNA 1: GGGAGGCCCTGCAGGAAGCAGGATGTTGACCCGGAG
DNA 2: CTCCGGGTCAACATCCTGCTTCCTGCAGGGCCTCCC
B29: Table S4 A row 2116 (dsDNA)
DNA 1: CCCAGCGGGCGAACTTCCTTTCCGCGCAACTCGCCC
DNA 2: GGGCGAGTTGCGCGGAAAGGAAGTTCGCCCGCTGGG
B30: Table S4 A row 136 (dsDNA)
DNA 1: TCTTTTGATTGGGCTTCCTTCCTGTGTTTTCTCAGA
DNA 2: TCTGAGAAAACACAGGAAGGAAGCCCAATCAAAAGA
B31: Table S4 A row 548 (dsDNA)
DNA 1: GCGCACCGAAACGGAAGAACTTCCTTGATTAGCATA
DNA 2: TATGCTAATCAAGGAAGTTCTTCCGTTTCGGTGCGC
B32: Table S4 A row 700 (dsDNA)
DNA 1: TGGGTGACACTCCTTCCGCCTTCCGTGACCCCCATC
DNA 2: GATGGGGGTCACGGAAGGCGGAAGGAGTGTCACCCA
B33: Table S4 A row 2556 (dsDNA)
DNA 1: CGCGCCGGACCGGAAAGCCGGGGAAGTGGCCGAGGA
DNA 2: TCCTCGGCCACTTCCCCGGCTTTCCGGTCCGGCGCG
B34: Table S4 A row 1324 (dsDNA)
DNA 1: TTGAATGGACCTCATCCTGCTTCCTGCTCTTTGCAG
DNA 2: CTGCAAAGAGCAGGAAGCAGGATGAGGTCCATTCAA
B35: Table S4 A row 2151 (dsDNA)
DNA 1: AGGGCTCAGAGGCGGAAGCGGAAGCACATTCTGTCA
DNA 2: TGACAGAATGTGCTTCCGCTTCCGCCTCTGAGCCCT
B36: Table S4 A row 1015 (dsDNA)
DNA 1: AGAAGCCACCACAGGAAACGGAAGAAGCCACCTCTG
DNA 2: CAGAGGTGGCTTCTTCCGTTTCCTGTGGTGGCTTCT
B37: Table S4 A row 2434 (dsDNA)
DNA 1: AGCAACAACGTCACTTCCCTTCCGGACCACAAGGGG
DNA 2: CCCCTTGTGGTCCGGAAGGGAAGTGACGTTGTTGCT
B38: Table S4 A row 382 (dsDNA)
DNA 1: AGGAGGGAGGGAGCTTCCTTCCTGTTCTCTGAAGGC
DNA 2: GCCTTCAGAGAACAGGAAGGAAGCTCCCTCCCTCCT
B39: Table S4 A row 677 (dsDNA)
DNA 1: ACAGCCCCGCCCGCTTCCTTCCTGCCTTCTCCACGT
DNA 2: ACGTGGAGAAGGCAGGAAGGAAGCGGGCGGGGCTGT
B40: Table S4 A row 2527 (dsDNA)
DNA 1: GCCTGAAGCCGGAAGACTATAGCTTCCCGGCATGCA
DNA 2: TGCATGCCGGGAAGCTATAGTCTTCCGGCTTCAGGC
B41: Table S4 A row 1712 (dsDNA)
DNA 1: CACGAGTCCAGGAAACAAGTGCTTCCTGCCTATGGG
DNA 2: CCCATAGGCAGGAAGCACTTGTTTCCTGGACTCGTG
B42: Table S4 A row 2542 (dsDNA)
DNA 1: GGGAAACTCCACAGGAAACGGAAATGGTCTCTCCCA
DNA 2: TGGGAGAGACCATTTCCGTTTCCTGTGGAGTTTCCC

Biological target: T1, ETS1 x2
Test: gcPBM; 10 nM ETS1
Conditions: tags: N-terminal GST (pDEST15), kept (PMC6008103); chain copies: 2; label: surface-attached array probe

Binder	binding signal
B1	832 PBM fluorescence, median of replicate spots
B2	844 PBM fluorescence, median of replicate spots
B3	849 PBM fluorescence, median of replicate spots
B4	872 PBM fluorescence, median of replicate spots
B5	912 PBM fluorescence, median of replicate spots
B6	950 PBM fluorescence, median of replicate spots
B7	1040 PBM fluorescence, median of replicate spots
B8	1100 PBM fluorescence, median of replicate spots
B9	1160 PBM fluorescence, median of replicate spots
B10	1230 PBM fluorescence, median of replicate spots
B11	1250 PBM fluorescence, median of replicate spots
B12	1300 PBM fluorescence, median of replicate spots
B13	1350 PBM fluorescence, median of replicate spots
B14	1370 PBM fluorescence, median of replicate spots
B15	1480 PBM fluorescence, median of replicate spots
B16	1530 PBM fluorescence, median of replicate spots
B17	1590 PBM fluorescence, median of replicate spots
B18	1650 PBM fluorescence, median of replicate spots
B19	1760 PBM fluorescence, median of replicate spots
B20	1830 PBM fluorescence, median of replicate spots
B21	1940 PBM fluorescence, median of replicate spots

Binder	binding signal
B22	2030 PBM fluorescence, median of replicate spots
B23	2080 PBM fluorescence, median of replicate spots
B24	2150 PBM fluorescence, median of replicate spots
B25	2270 PBM fluorescence, median of replicate spots
B26	2360 PBM fluorescence, median of replicate spots
B27	2460 PBM fluorescence, median of replicate spots
B28	2610 PBM fluorescence, median of replicate spots
B29	2660 PBM fluorescence, median of replicate spots
B30	2710 PBM fluorescence, median of replicate spots
B31	2740 PBM fluorescence, median of replicate spots
B32	2820 PBM fluorescence, median of replicate spots
B33	3050 PBM fluorescence, median of replicate spots
B34	3130 PBM fluorescence, median of replicate spots
B35	3300 PBM fluorescence, median of replicate spots
B36	3380 PBM fluorescence, median of replicate spots
B37	3480 PBM fluorescence, median of replicate spots
B38	3590 PBM fluorescence, median of replicate spots
B39	3660 PBM fluorescence, median of replicate spots
B40	3700 PBM fluorescence, median of replicate spots
B41	3840 PBM fluorescence, median of replicate spots
B42	4020 PBM fluorescence, median of replicate spots
